Experimental findings from article PMC6555833, “APC/C^CDH1 synchronizes ribose-5-phosphate levels and DNA synthesis to cell cycle progression” (Nature Communications, 2019) are described below.

T1: purified recombinant TKT (human, UniProt P29401 1-623)
T1 chain: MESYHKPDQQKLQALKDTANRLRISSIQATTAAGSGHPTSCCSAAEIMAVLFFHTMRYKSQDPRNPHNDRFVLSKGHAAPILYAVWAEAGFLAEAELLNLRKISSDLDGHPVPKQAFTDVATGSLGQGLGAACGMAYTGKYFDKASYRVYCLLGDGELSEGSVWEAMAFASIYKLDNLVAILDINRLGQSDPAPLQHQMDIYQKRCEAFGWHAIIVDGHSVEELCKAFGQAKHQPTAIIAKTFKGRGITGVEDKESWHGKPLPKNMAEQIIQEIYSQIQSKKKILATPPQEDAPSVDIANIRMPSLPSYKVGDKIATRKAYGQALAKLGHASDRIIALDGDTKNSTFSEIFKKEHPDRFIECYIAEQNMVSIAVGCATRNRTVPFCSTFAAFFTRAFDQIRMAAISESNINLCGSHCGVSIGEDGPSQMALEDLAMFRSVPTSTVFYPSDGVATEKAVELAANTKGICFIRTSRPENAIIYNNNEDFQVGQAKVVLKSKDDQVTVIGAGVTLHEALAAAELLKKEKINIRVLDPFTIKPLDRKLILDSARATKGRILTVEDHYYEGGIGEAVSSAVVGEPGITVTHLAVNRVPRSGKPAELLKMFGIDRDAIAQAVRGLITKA

B1: purified recombinant TKTL1 (natural protein, human, UniProt P51854 1-596, looked up)
chain: MADAEARAEFPEEARPDRGTLQVLQDMASRLRIHSIRATCSTSSGHPTSCSSSSEIMSVLFFYIMRYKQSDPENPDNDRFVLAKRLSFVDVATGWLGQGLGVACGMAYTGKYFDRASYRVFCLMSDGESSEGSVWEAMAFASYYSLDNLVAIFDVNRLGHSGALPAEHCINIYQRRCEAFGWNTYVVDGRDVEALCQVFWQASQVKHKPTAVVAKTFKGRGTPSIEDAESWHAKPMPRERADAIIKLIESQIQTSRNLDPQPPIEDSPEVNITDVRMTSPPDYRVGDKIATRKACGLALAKLGYANNRVVVLDGDTRYSTFSEIFNKEYPERFIECFMAEQNMVSVALGCASRGRTIAFASTFAAFLTRAFDHIRIGGLAESNINIIGSHCGVSVGDDGASQMALEDIAMFRTIPKCTIFYPTDAVSTEHAVALAANAKGMCFIRTTRPETMVIYTPQERFEIGQAKVLRHCVSDKVTVIGAGITVYEALAAADELSKQDIFIRVIDLFTIKPLDVATIVSSAKATEGRIITVEDHYPQGGIGEAVCAAVSMDPDIQVHSLAVSGVPQSGKSEELLDMYGISARHIIVAVKCMLLN
notes: wild-type transketolase-like protein 1 (TKTL1), human; in vector pSJ3; also called TKTL1 monomer; source: E. coli BL21 (DE3)pLysS, purified (nickel column)
B2: purified recombinant TKT (natural protein, human, UniProt P29401 1-623, looked up)
chain: T1 chain
notes: wild-type transketolase (TKT), human; in vector pSJ3; also called TKT homodimer; TKT-TKT; source: E. coli BL21 (DE3)pLysS, purified (nickel column)

Data set [1] has as its target B2. The experiment in a line: SPR; Biacore T200; TKT amine-coupled to a CM5 chip in 10 mM sodium acetate pH 5.5; TKTL1 in a series of concentrations starting at 65.9 nM; PBS buffer. Particulars: both partners purified. A general note: In SPR one partner is held on a chip, and binding of the other changes the refractive index at the surface.
Data set [2] addresses T1, purified recombinant TKT. In words: SPR.
Data set [3] concerns the molecule itself. The experiment in a line: SPR; Biacore T200; TKT immobilised on a CM5 chip; constant of the TKT-TKT homodimer; the analyte series is not described.
Data set [4] concerns the molecule itself. In words: native gel or EMSA; native gel electrophoresis of TKT, TKTL1-TKT and TKTL1. In general terms: In EMSA bound probe runs differently from free probe, usually more slowly.
The data set “SPR” concerns the molecule itself. In words: SPR.

As a reminder, the Kd is the equilibrium constant for the complex coming apart. In general, koff refers to the first-order rate constant of dissociation. With B1, the Kd in the data set with purified recombinant TKT [1] came out at 146 nM. In addition, in the data set with purified recombinant TKT [2], the koff is 0.0044 s⁻¹.
In general, stoichiometry N refers to the number of molecules, sites or subunits per partner or assembly. B2 displayed a Kd in data set [3] of 118 nM. Moreover, the “stoichiometry N” value in data set [4] came to 2. Moreover, the koff in “SPR” was found to be 0.00777 s⁻¹.
